± gives the uncertainty stated by the source.
B1: Gamma-crystallin S, residues 96 to 176; numbered along this chain, P22914 (parent)
chain: IQIFEKGDFSGQMYETTEDCPSIMEQFHMREIHSCKVLEGVWIFYELPNYRGRQYLLDKKEYRKPIDWGAASPAVQSFRRI

Variants of: B1
Test: abundance fitness (aPCA) (normalised: wild type 0, dead -1); higher = more abundant; growth selection in yeast, the domain comes from the species named
Conditions: Homo sapiens
With IQIFEKGDFSGQMYHTTEDCPSIMEQFHMREIHSCKVLEGVWIFYELPNYRGRQYLLDKKEYRKPIDWGAASPAVQSFRRI [E15H] the abundance fitness was -0.095 ± 0.14. IQIFEKGDFSGQMYGTTEDCPSIMEQFHMREIHSCKVLEGVWIFYELPNYRGRQYLLDKKEYRKPIDWGAASPAVQSFRRI [E15G] showed an abundance fitness of -0.044 ± 0.059. With IQIFEKGDFSGQMYTTTEDCPSIMEQFHMREIHSCKVLEGVWIFYELPNYRGRQYLLDKKEYRKPIDWGAASPAVQSFRRI [E15T] the abundance fitness was -0.064 ± 0.11. For IQIFEKGDFSGQMYLTTEDCPSIMEQFHMREIHSCKVLEGVWIFYELPNYRGRQYLLDKKEYRKPIDWGAASPAVQSFRRI [E15L], the abundance fitness was -0.078 ± 0.078. Work on IQIFEKGDFSGQMYWTTEDCPSIMEQFHMREIHSCKVLEGVWIFYELPNYRGRQYLLDKKEYRKPIDWGAASPAVQSFRRI [E15W] yielded an abundance fitness of -0.062 ± 0.13. With IQIFEKGDFSGQMYATTEDCPSIMEQFHMREIHSCKVLEGVWIFYELPNYRGRQYLLDKKEYRKPIDWGAASPAVQSFRRI [E15A] the abundance fitness was -0.011 ± 0.062. Work on IQIFEKGDFSGQMYMTTEDCPSIMEQFHMREIHSCKVLEGVWIFYELPNYRGRQYLLDKKEYRKPIDWGAASPAVQSFRRI [E15M] yielded an abundance fitness of -0.18 ± 0.1. For IQIFEKGDFSGQMYRTTEDCPSIMEQFHMREIHSCKVLEGVWIFYELPNYRGRQYLLDKKEYRKPIDWGAASPAVQSFRRI [E15R], the abundance fitness was -0.057 ± 0.053. IQIFEKGDFSGQMYDTTEDCPSIMEQFHMREIHSCKVLEGVWIFYELPNYRGRQYLLDKKEYRKPIDWGAASPAVQSFRRI [E15D] showed an abundance fitness of -0.046 ± 0.099. For IQIFEKGDFSGQMYCTTEDCPSIMEQFHMREIHSCKVLEGVWIFYELPNYRGRQYLLDKKEYRKPIDWGAASPAVQSFRRI [E15C], the abundance fitness was -0.137 ± 0.098. Work on IQIFEKGDFSGQMYYTTEDCPSIMEQFHMREIHSCKVLEGVWIFYELPNYRGRQYLLDKKEYRKPIDWGAASPAVQSFRRI [E15Y] yielded an abundance fitness of 0.115 ± 0.12. IQIFEKGDFSGQMYVTTEDCPSIMEQFHMREIHSCKVLEGVWIFYELPNYRGRQYLLDKKEYRKPIDWGAASPAVQSFRRI [E15V] gave an abundance fitness of -0.013 ± 0.061. In the case of IQIFEKGDFSGQMYQTTEDCPSIMEQFHMREIHSCKVLEGVWIFYELPNYRGRQYLLDKKEYRKPIDWGAASPAVQSFRRI [E15Q], the abundance fitness is reported as 0.018 ± 0.11. IQIFEKGDFSGQMYKTTEDCPSIMEQFHMREIHSCKVLEGVWIFYELPNYRGRQYLLDKKEYRKPIDWGAASPAVQSFRRI [E15K] showed an abundance fitness of 0.147 ± 0.12. IQIFEKGDFSGQMYITTEDCPSIMEQFHMREIHSCKVLEGVWIFYELPNYRGRQYLLDKKEYRKPIDWGAASPAVQSFRRI [E15I] gave an abundance fitness of -0.183 ± 0.15. In the case of IQIFEKGDFSGQMYPTTEDCPSIMEQFHMREIHSCKVLEGVWIFYELPNYRGRQYLLDKKEYRKPIDWGAASPAVQSFRRI [E15P], the abundance fitness is reported as -0.038 ± 0.098. IQIFEKGDFSGQMYFTTEDCPSIMEQFHMREIHSCKVLEGVWIFYELPNYRGRQYLLDKKEYRKPIDWGAASPAVQSFRRI [E15F] gave an abundance fitness of -0.05 ± 0.099. In the case of IQIFEKGDFSGYMYETTEDCPSIMEQFHMREIHSCKVLEGVWIFYELPNYRGRQYLLDKKEYRKPIDWGAASPAVQSFRRI [Q12Y], the abundance fitness is reported as 0.035 ± 0.13. IQIFEKGDFSGVMYETTEDCPSIMEQFHMREIHSCKVLEGVWIFYELPNYRGRQYLLDKKEYRKPIDWGAASPAVQSFRRI [Q12V] gave an abundance fitness of 0.005 ± 0.039. Variant IQIFEKGDFSGQMAETTEDCPSIMEQFHMREIHSCKVLEGVWIFYELPNYRGRQYLLDKKEYRKPIDWGAASPAVQSFRRI [Y14A] has an abundance fitness of 0.049 ± 0.077. IQIFEKGDFSGQMQETTEDCPSIMEQFHMREIHSCKVLEGVWIFYELPNYRGRQYLLDKKEYRKPIDWGAASPAVQSFRRI [Y14Q] gave an abundance fitness of 0.128 ± 0.097. In the case of IQIFEKGDFSGQMSETTEDCPSIMEQFHMREIHSCKVLEGVWIFYELPNYRGRQYLLDKKEYRKPIDWGAASPAVQSFRRI [Y14S], the abundance fitness is reported as 0.07 ± 0.061. Work on IQIFEKGDFSGQMFETTEDCPSIMEQFHMREIHSCKVLEGVWIFYELPNYRGRQYLLDKKEYRKPIDWGAASPAVQSFRRI [Y14F] yielded an abundance fitness of -0.011 ± 0.083. IQIFEKGDFSGQMRETTEDCPSIMEQFHMREIHSCKVLEGVWIFYELPNYRGRQYLLDKKEYRKPIDWGAASPAVQSFRRI [Y14R] gave an abundance fitness of -0.004 ± 0.056. Work on IQIFEKGDFSGQMMETTEDCPSIMEQFHMREIHSCKVLEGVWIFYELPNYRGRQYLLDKKEYRKPIDWGAASPAVQSFRRI [Y14M] yielded an abundance fitness of -0.166 ± 0.11. For IQIFEKGDFSGQMPETTEDCPSIMEQFHMREIHSCKVLEGVWIFYELPNYRGRQYLLDKKEYRKPIDWGAASPAVQSFRRI [Y14P], the abundance fitness was -0.993 ± 0.22. In the case of IQIFEKGDFSGQMEETTEDCPSIMEQFHMREIHSCKVLEGVWIFYELPNYRGRQYLLDKKEYRKPIDWGAASPAVQSFRRI [Y14E], the abundance fitness is reported as 0.113 ± 0.2. Variant IQIFEKGDFSGQMDETTEDCPSIMEQFHMREIHSCKVLEGVWIFYELPNYRGRQYLLDKKEYRKPIDWGAASPAVQSFRRI [Y14D] has an abundance fitness of -0.01 ± 0.095. IQIFEKGDFSGQMHETTEDCPSIMEQFHMREIHSCKVLEGVWIFYELPNYRGRQYLLDKKEYRKPIDWGAASPAVQSFRRI [Y14H] showed an abundance fitness of 0.034 ± 0.17. Work on IQIFEKGDFSGQMKETTEDCPSIMEQFHMREIHSCKVLEGVWIFYELPNYRGRQYLLDKKEYRKPIDWGAASPAVQSFRRI [Y14K] yielded an abundance fitness of -0.009 ± 0.13. Variant IQIFEKGDFSGQMVETTEDCPSIMEQFHMREIHSCKVLEGVWIFYELPNYRGRQYLLDKKEYRKPIDWGAASPAVQSFRRI [Y14V] has an abundance fitness of -0.002 ± 0.072. IQIFEKGDFSGQMWETTEDCPSIMEQFHMREIHSCKVLEGVWIFYELPNYRGRQYLLDKKEYRKPIDWGAASPAVQSFRRI [Y14W] gave an abundance fitness of -0.056 ± 0.15. Work on IQIFEKGDFSGQMNETTEDCPSIMEQFHMREIHSCKVLEGVWIFYELPNYRGRQYLLDKKEYRKPIDWGAASPAVQSFRRI [Y14N] yielded an abundance fitness of 0.063 ± 0.081. In the case of IQIFEKGDFSGQMCETTEDCPSIMEQFHMREIHSCKVLEGVWIFYELPNYRGRQYLLDKKEYRKPIDWGAASPAVQSFRRI [Y14C], the abundance fitness is reported as -0.027 ± 0.077.
